Test results: patent US20040233833A1, “Methods for identifying compounds with thrapeutic potential for treatment of central Neurodegenerative diseases resulting from abnormal protein or peptide accumulation” (priority 2001, published 2004)
Where “and” joins values, the source holds several entries; their conditions need not be identical. Identical values can stand only once.

Legend:
proteasome [1] = target: T1, proteasome (Homo sapiens, UniProt P28072+P28074+Q99436); assay: REGα(N146Y)/REGβ(N135Y) competition assay for relative proteasome affinity; assay type: binding; conditions: in terms of REGα(N146Y)/REGβ(N135Y) competition; wild-type REGγ 100
From the text: As a measure of the relative affinities of REGγ and the REGγLys188 mutants for the proteasome, a competition assay was used. See Li et al. (2000), The Proteasome Activator 11S REG or PA28: Chimeras Implicate Carboxyl-Terminal Sequences in Oligomerization and Proteasome Binding But Not in the Activation of Specific Proteasome Catalytic Subunits. J. Mol. Biol. 299:641-54. All REGγLys188 mutants were relatively resistant to REGα(N146Y)/REGβ(N135Y) competition with apparent proteasome affinities varying from 40% to 90% that of wild-type REGγ.

proteasome [2] = target: T1, proteasome; assay: Proteasomal hydrolysis of natural peptides P21 and BBC1 (HPLC); assay type: biochemical; conditions: 21-residue peptide P21; result in words
Experimental: Proteasomal hydrolysis of a 21 -residue peptide (P21) and a 49-residue peptide (BBC1) were prepared as described by Zhang et al. (1998), Proteasome Activation by REG Molecules Lacking Homolog-specific Inserts, J. Biol. Chem. 273:9501-09. Digestion products were applied to a C18 HPLC column and separated with a gradient of 0-45% acetonitrile containing 0.1% trifluoroacetic acid. To identify the products derived from P21, fractions were collected manually, concentrated, and subjected to mass spectrometry.

[3] = target: T2, Human red blood cell proteasomes (Homo sapiens, UniProt P28072+P28074+Q99436); assay: Activation of fluorogenic peptide hydrolysis by the proteasome in the presence of REG variants; assay type: biochemical; conditions: for Stimulation of cleavage (x-fold) LLE: substrate LLE-βNA (PGPH site); for Stimulation of cleavage (x-fold) LLVY: substrate LLVY-MCA (chymotrypsin-like site); for Stimulation of cleavage (x-fold) LRR: substrate LRR-MCA (trypsin-like site)
T2 construct: Human red blood cell proteasomes; from tissue; host or cells: human red blood cells
Experimental: Human red blood cell proteasomes (170 ng) were mixed with increasing amounts of purified REG variants. The reactions were started by adding 50 μl of 200 μMscu-LLVY-MCA, Boc-LRR-MCA, or Boc-LLE-βNA in 10 mM Tris, pH 7.5. After a 10 min incubation, the reaction was quenched with 200μl of cold 100% ethanol, and the released MCA or βNA ws measured fluometrically. Each data point represents the mean of three measurements from a single experiment. […] REGα (▪), REGγ(□), REGγ(K188E) or REGγ(K188D) (●), REGγ(K188H) (∘), REGγ(K188Q) or REGγ(K188N) (Δ), REGγ(K188A) (♦). The data for REGγ(K188E) and REGγ(K188D) and for REGγ(K188Q) and REGγ(K188N) were combined since their activities were indistinguishable.
Because each positive variant identified in the previous example included a mutation at Lys188, site-directed mutagenesis was used to generate a series of amino acid substitutions at this residue. Twelve mutants were constructed in which Lys188 of REGγ was changed to Ala, Arg, Asn, Asp, Cys, Gln, Glu, His, Ile, Phe, Pro, or Ser. Wild-type REGγ and the Lys 188 variants were expressed in E. coli, purified, and the activation specificity of each protein was measured using the diagnostic peptides LLVY (SEQ ID NO:1)-MCA, LRR-MCA, and LLE-βNA. Except for the K188R variant, all Lys 188 mutants stimulated the hydrolysis of LRR-MCA by the proteasome to the same extent or slightly better than wild-type REGγ. Substitution of negatively-charged Glu or Asp for the positively-charged Lys188 produced mutants with activation properties almost identical to REGα.
To determine the degree to which the activation specificity of REGγ(K188E/D) variants matches that of REGα, proteasomal cleavage of a series of fluorogenic peptides was measured in the presence of each activator.

[4] = Heptamer stability on rechromatography (Superdex 200 size exclusion column); assay type: physicochemical; conditions: for Percent heptamer: after second gel filtration
From the text: To examine the effect of Lys188 substitution on REGγ heptamer stability, the wildtype and Lys 188 variant heptamers were rechromatographed on the Superdex 200 (26/60) size exclusion column used for purification. […] Replacement of Lys 188 by Pro or Phe severely affected the stability of REGγ heptamer.

[5] = target: T2, Human red blood cell proteasomes; assay: Activation of fluorogenic peptide hydrolysis by the proteasome in the presence of REG variants; assay type: biochemical; conditions: for Stimulation of cleavage (x-fold) AAF-MCA: substrate AAF-MCA; for Stimulation of cleavage (x-fold) DEVD-MCA: substrate DEVD(SEQ ID NO: 8)-MCA; for Stimulation of cleavage (x-fold) FSR-MCA: substrate FSR-MCA; for Stimulation of cleavage (x-fold) IEGR-MCA: substrate IEGR(SEQ ID NO: 5)-MCA; for Stimulation of cleavage (x-fold) IETD-MCA: substrate IETD(SEQ ID NO: 6)-MCA; for Stimulation of cleavage (x-fold) LGHD-MCA: substrate LGHD(SEQ ID NO: 7)-MCA; for Stimulation of cleavage (x-fold) LY-MCA: substrate LY-MCA; for Stimulation of cleavage (x-fold) VLK-MCA: substrate VLK-MCA; for Stimulation of cleavage (x-fold) YVAD-MCA: substrate YVAD(SEQ ID NO: 9)-MCA
proteasomes [6] = target: T3, proteasomes (Homo sapiens, UniProt P28072+P28074+Q99436); assay: Proteasomal degradation of fluorescein-labeled polyQ peptides (molecular exclusion chromatography); assay type: biochemical
Experimental: The following peptides were synthesized using routine peptide synthesis:
Each peptide was incubated for 5 hr with proteasomes alone, proteasomes+REGγ, proteasome+REGγ(K188E) or proteasomes+REGα/β. Degradation was assayed by molecular exclusion chromatography using fluorescein as a signal (see FIG. 2). The degradation products were identified by HPLC-MS (FIG. 3). […] By contrast, in the presence of REGγ(K188E) the various polyQ peptides were degraded 5 to 10-fold faster.

proteasomes [7] = target: T3, proteasomes; assay: Proteasomal degradation of the fluorescein-tagged C31 peptide of APP; assay type: biochemical; conditions: result in words
Experimental: A 31-residue C-terminal peptide (C31) of APP, the transmembrane protein that gives rise to amyloid plaque forming Aβ peptides characteristic of Alzheimer's disease, was synthesized using routine peptide synthesis. A fluorescein tag was added to the peptide. C31 peptide is cytotoxic. See Lu et al. (2000), a Second Cytotoxic Proteolytic Peptide Derived from Amyloid Beta-Protein Precursor, Nat. Med. 6:397-404.
The C31 was incubated with proteasomes alone, proteasomes+REGγ, proteasome+REGγ(K188E) or proteasomes+REGα/β, and degradation was assayed as described in Example 8.

[8] = target: proteasome β subunits (T, CT/PGPH) (Homo sapiens, UniProt P28072+P28074+Q99436); assay: Affinity labeling of proteasome β subunits with 125I-YL3-VS in the presence of REGs; assay type: biochemical; conditions: mean±S.D.
From the text: To obtain estimates of substrate access to the proteasome's central chamber in the presence of REGγ and REGγ(K188E), the active site-directed probe, ^125I-YL3-VS, which covalently modifies all three active β-subunits in an activity dependent manner, was used. […] The phosphoimages show increased labeling of CT/PGPH and T subunits in the presence of REGγ and REGγ(K188E). The data further reveal that REGγ increased the rate of T-subunit labeling 4.7±2.6 (mean±S.D.) fold and the rate of CT/PGPH labeling 4.4±1.7 (mean±S.D.) fold over that seen with proteasome alone. Stimulation by the mutant REGγ(K188E) was greater, being 10.8±4.9 (mean±S.D.) fold for the T-subunit and 11.9±4.8 (mean±S.D.) fold for the CT/PGPH subunit. […] The finding that REGγ increased labeling of the CT and PGPH subunits was unexpected as the wild type activator suppresses hydrolysis of the CT substrate sLLVY (SEQ ID NO:1)-MCA.

[9] = proteasome + activator, 5 hr incubation

Substance | Relative affinity for proteasome (proteasome [1]) | Hydrolysis of P21 by the proteasome (proteasome [2]) | Stimulation of cleavage (x-fold) LLE [3] [x-fold] | Stimulation of cleavage (x-fold) LLVY [3] [x-fold] | Stimulation of cleavage (x-fold) LRR [3] | Percent heptamer [4] | Stimulation of cleavage (x-fold) AAF-MCA [5] [x-fold] | Stimulation of cleavage (x-fold) DEVD-MCA [5] [x-fold] | Stimulation of cleavage (x-fold) FSR-MCA [5] [x-fold] | Stimulation of cleavage (x-fold) IEGR-MCA [5] [x-fold] | Stimulation of cleavage (x-fold) IETD-MCA [5] [x-fold] | Stimulation of cleavage (x-fold) LGHD-MCA [5] [x-fold] | Stimulation of cleavage (x-fold) LY-MCA [5] [x-fold] | Stimulation of cleavage (x-fold) VLK-MCA [5] [x-fold] | Stimulation of cleavage (x-fold) YVAD-MCA [5] [x-fold] | other results
REGα: 11S REG proteasome activator subunit closely related to REGβ and REGγ | 0 | markedly increased | 9 | 16 | 16 x-fold | ˜95% | 6 | 10 | 10 | 3 | 30 | 11 | 5 | 7 | 9 | 
REGγ: wild-type 11S REG proteasome activator subunit, a homo-heptamer found principally in the nucleus | 100 | decreased | 0.6 | 0.4 | 12 x-fold and 11 x-fold | >95% | 1 | 2 | 7 | 1 | 1 | 1 | 2 | 5 | 0.9 | % Degraded, substrate F1-EPQPQ (proteasomes [6]; [9]): 5%; % Degraded, substrate F1-KSQPQ (proteasomes [6]; [9]): 15%; % Degraded, substrate F1-QHQ (proteasomes [6]; [9]): 5%; % Degraded, substrate F1-QPQ (proteasomes [6]; [9]): 5%; % Degraded, substrate F1-QQQ (proteasomes [6]; [9]): 15%; Degradation of polyQ peptides (proteasomes [6]; result in words): resistant to degradation; Degradation of C31 peptide by proteasomes (proteasomes [7]): Only trace amounts; Increase in rate of CT/PGPH labeling over proteasome alone [8]: 4.4±1.7 fold; Increase in rate of T-subunit labeling over proteasome alone [8]: 4.7±2.6 fold; Percentage that remained heptamers on rechromatography ([4]; Superdex 200 second gel filtration): remained fully heptameric; Stimulation of cleavage of the LRR-MCA substrate ([5]; compared to the basal rate in the absence of REGγ (Example 10)): 10-20 fold; Proteasomal cleavage of sucLLVY-MCA ([5]; result in words): does not promote
γK188D: mutant REGγ in which Lys188 was changed to Asp | 90 | markedly increased | 9 | 14 | 15 x-fold | 50% | 4 | 9 | 7 | 2 | 26 | 11 | 3 | 6 | 8 | Activation properties compared with REGα ([3]; small fluorogenic peptides, result in words): virtually identical to REGα; Heptamers dissociated during the second gel filtration ([4]; Superdex 200): More than half
